Source: the supplement of paper PMC10567573

B1: KRT33B (parent)
chain: PAVDLNQVLNETRNQYEALVETNR
B2: MATN2 (parent)
chain: FIVDILQFLDIGPDVTRVGLLQYG

Variants of: B1
Experiment: protein stability index of a GFP-peptide fusion (GPS, HEK-293T) (PSI 1-6); higher = more stable
Conditions: c terminus: a fixed tail appended
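Also: lentivirally expressed fusions sorted by FACS into six bins by GFP to DsRed ratio, PSI derived from sequencing read proportions per bin multiplied by bin number.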

| Variant | protein stability index |
| --- | --- |
| N10F | 2.44 |
| N10D | 3.3 |
| N10W | 2.37 |
| D4A | 3.94 |
| D4V | 3.99 |
| D4L | 3.55 |
| D4F | 2.82 |
| D4S | 2.74 |
| T22E | 4.05 |
| T22C | 3.78 |
| T22M | 3.33 |
| N6R | 3.13 |
| N6M | 1.34 |
| N6I | 2.05 |
| N6G | 4.3 |
| L9C | 4.91 |
| L9A | 5.16 |
| L9D | 4.52 |
| L9F | 4.25 |
| L9E | 4.93 |
| L9S | 4.96 |
| L9G | 4.76 |
| L9M | 4.13 |
| L9H | 4.2 |

| Variant | protein stability index |
| --- | --- |
| N14W | 2.55 |
| N14T | 3.21 |
| N14K | 2.63 |
| N14Y | 3.42 |
| V8T | 4.41 |
| V8A | 3.84 |
| V8H | 4.05 |
| V8L | 1.45 |
| L5P | 4.03 |
| L5F | 3.38 |
| L5G | 5.15 |
| L5N | 5.02 |
| N23C | 4.03 |
| N23S | 4.25 |
| N23Y | 3.71 |
| N23A | 4.3 |
| V20A | 2.74 |
| V20G | 4.49 |
| V20R | 4.43 |
| V20P | 4.34 |
| E21V | 3.54 |
| E21T | 4.06 |
| E21I | 3.71 |
| E21D | 3.69 |

| Variant | protein stability index |
| --- | --- |
| E21K | 4.2 |
| E21F | 3.23 |
| E21P | 4.18 |
| E21C | 3.58 |
| E21H | 4.19 |
| R24Y | 2.83 |
| R24G | 4.72 |
| R24N | 4.16 |
| R24T | 3.87 |
| R24D | 5.15 |
| R24H | 4.24 |
| R24M | 2.16 |
| R24L | 2.54 |
| V3G | 4.65 |
| V3K | 3.83 |
| V3I | 3.77 |
| V3W | 4.12 |
| V3R | 3.4 |
| E11D | 3.77 |
| E11N | 3.94 |
| E11F | 3.84 |
| E11H | 4.13 |
| E11S | 3.62 |
| E11T | 4.1 |

| Variant | protein stability index |
| --- | --- |
| E11A | 3.63 |
| L19F | 4.11 |
| L19W | 4.25 |
| L19K | 4.95 |
| L19S | 5.03 |
| L19C | 4.53 |
| Q7E | 3.11 |
| Q7F | 3.79 |
| Q7R | 3.95 |
| Q7H | 4.38 |
| Q7I | 3.55 |
| Q7M | 4.24 |
| Q7V | 3.86 |
| T12P | 4.52 |
| T12F | 1.85 |
| T12H | 2.84 |
| T12R | 4.89 |
| E17H | 3.9 |
| E17L | 3.73 |
| E17T | 3.62 |
| E17V | 3.71 |
| E17A | 3.65 |
| E17K | 3.48 |
| E17R | 3.96 |

| Variant | protein stability index |
| --- | --- |
| E17I | 3.13 |
| P1M | 3.71 |
| P1H | 4.02 |
| P1N | 4.23 |
| A18G | 4.48 |
| A18Q | 2.96 |
| A18V | 4.06 |
| A18R | 2.53 |
| Y16F | 3.5 |
| Y16T | 5.15 |
| Y16E | 4.85 |
| Y16A | 5.14 |
| Y16D | 4.98 |
| Y16K | 4.8 |
| Y16S | 5.12 |
| Q15V | 3.82 |
| Q15N | 4.38 |
| Q15R | 4.37 |
| A2D | 4.82 |
| A2Q | 3.11 |
| A2K | 3.87 |
| A2N | 4.4 |
| A2S | 3.23 |

Variants of: B2
Experiment: as above
Conditions: c terminus: a fixed tail appended

| Variant | protein stability index |
| --- | --- |
| D4V | 2.77 |
| D4A | 2.58 |
| D4C | 2.67 |
| D4K | 2.12 |
| D4Y | 2.58 |
| D4P | 5.01 |
| D4H | 4.41 |
| D4L | 2.53 |
| D4E | 2.88 |
| D4Q | 2.72 |
| I5Q | 1.81 |
| I5L | 2.26 |
| I5A | 1.44 |
| I5N | 2.12 |
| I5E | 3.96 |
| I5Y | 3.16 |
| I5V | 3.23 |
| I5D | 3.18 |
| I5F | 3.88 |
| I2L | 1.44 |
| I2T | 1.4 |
| I2R | 2.35 |
| I2Y | 3.07 |
| I2G | 3.67 |

| Variant | protein stability index |
| --- | --- |
| I2H | 3.01 |
| I2K | 2.88 |
| L6H | 3.78 |
| L6F | 2.17 |
| L6I | 2.56 |
| L6A | 3.92 |
| L6R | 3.41 |
| L6P | 1.3 |
| F1N | 2.54 |
| F1E | 2.04 |
| F1P | 1.15 |
| F1K | 2.46 |
| F1W | 2.01 |
| F1V | 1.05 |
| F1A | 2.61 |
| F1Q | 2.03 |
| F1Y | 2.36 |
| V3N | 3.33 |
| V3D | 3.75 |
| V3W | 3.32 |
| V3Y | 2.5 |
| V3P | 2.84 |
| V3H | 4.66 |
| V3K | 2.6 |
